According to article PMC10404244:

Columns and labels:
[1] = biological target: tyrosinated microtubules polymerized from purified porcine brain tubulin (porcine) (UniProt P02550); experiment: TIRF microscopy microtubule-binding assay (mean fluorescence intensity); tyrosinated and detyrosinated microtubules held in the same chamber, 2 mM AMP-PNP, HP assay buffer pH 7.0
[2] = biological target: tyrosinated microtubules polymerized from purified porcine brain tubulin (porcine) (UniProt P02550); experiment: single-molecule TIRF microscopy (landing rate, dwell time); tyrosinated and detyrosinated microtubules held in the chamber, single molecules of motors, 2 mM ADP, HP assay buffer pH 7.0
[3] = biological target: tyrosinated microtubules polymerized from purified porcine brain tubulin (porcine) (UniProt P02550); experiment: TIRF microscopy microtubule-binding assay (mean fluorescence intensity); tyrosinated and detyrosinated microtubules held in the same chamber, 2 mM ADP (Fig. 4C: 50 nM motor, 10 min), HP assay buffer pH 7.0
[4] = biological target: tyrosinated microtubules polymerized from purified porcine brain tubulin (porcine) (UniProt P02550); experiment: single-molecule TIRF microscopy (landing rate, processive motility); tyrosinated and detyrosinated microtubules held by biotin-streptavidin in the same chamber, motors at single-molecule concentrations, 2 mM ATP, HP assay buffer pH 7.0
[5] = biological target: detyrosinated microtubules: porcine brain tubulin treated with carboxypeptidase A (CPA) (porcine) (UniProt P02550); experiment: TIRF microscopy microtubule-binding assay (titration of fluorescence intensity); apparent; motor titrated 0.1–50 nM on held tyrosinated and detyrosinated microtubules, ADP; n = 160 MTs, N = 2
[6] = biological target: tyrosinated microtubules polymerized from purified porcine brain tubulin (porcine) (UniProt P02550); experiment: as above
[7] = biological target: detyrosinated microtubules: porcine brain tubulin treated with carboxypeptidase A (CPA) (porcine) (UniProt P02550); experiment: TIRF microscopy microtubule-binding assay (mean fluorescence intensity); tyrosinated and detyrosinated microtubules held in the same chamber, 2 mM ADP (Fig. 4C: 50 nM motor, 10 min), HP assay buffer pH 7.0

Sequence of human KIF13B CAP-Gly fragment (a.a. 1685–1826), N-terminal sfGFP-StrepII (Q9NQT8 1685-1826): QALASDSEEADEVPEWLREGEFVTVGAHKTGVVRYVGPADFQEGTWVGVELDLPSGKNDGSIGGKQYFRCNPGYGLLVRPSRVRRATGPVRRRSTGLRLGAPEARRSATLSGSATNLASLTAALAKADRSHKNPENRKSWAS

fold binding (fluorescence intensity), tyrosinated over detyrosinated microtubules, AMP-PNP [1] [fold]	fold dwell time, tyrosinated over detyrosinated microtubules (ADP) [2] [fold]	fold landing rate, tyrosinated over detyrosinated microtubules (ADP) [2] [fold]	fold binding (fluorescence intensity), tyrosinated over detyrosinated microtubules, ADP [3] [fold]	fold landing rate, tyrosinated over detyrosinated microtubules (ATP) [4] [fold]	Kd [5] [nM]	Kd [6] [nM]	fold motor density on microtubules over KIF13B (50 nM, ADP) [7] [fold]	fold motor density on microtubules over KIF13B (50 nM, ADP) [3] [fold]	fold lower dwell time than full-length KIF13B or KIF13B^Δtail (tyrosinated microtubules, ADP) [2] [fold]	Substance
1.4	1.3	2	8	2						full-length human KIF13B (wild type), C-terminal sfGFP-StrepII (from UniProt Q9NQT8 1-1826) (natural protein)
	1.5	2	2	2	72.7	23.7	11	3		full-length human KIF13B K414A, C-terminal sfGFP-StrepII (from UniProt Q9NQT8 1-1826) (natural protein)
				2						full-length human KIF13B V178Q, C-terminal sfGFP-StrepII (from UniProt Q9NQT8 1-1826) (natural protein)
		14							2 to 3	human KIF13B CAP-Gly fragment (a.a. 1685–1826), N-terminal sfGFP-StrepII (from UniProt Q9NQT8 1685-1826) (domain or fragment)
